Measured values as given in US20180155451A1 (published 2018).

T1: FcγRIIa R (human, UniProt P12318 34-217)
T1 construct: extracellular domain; Soluble extracellular domain with C-terminal His tag, expressed in FreeStyle293 cells; also called FcgRIIa R; FcγRIIa type R; not shown: His tag attached to the C terminus
T1 sequence (looked up): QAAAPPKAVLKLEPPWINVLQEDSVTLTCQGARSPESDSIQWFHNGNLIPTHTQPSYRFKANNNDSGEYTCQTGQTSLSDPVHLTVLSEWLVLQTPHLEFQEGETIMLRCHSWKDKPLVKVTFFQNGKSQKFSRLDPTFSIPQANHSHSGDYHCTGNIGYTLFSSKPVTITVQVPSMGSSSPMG

B1: GpH7-B3 variant T335_15Y/GpL16-k0 (antibody, human IgG1, kappa)
heavy: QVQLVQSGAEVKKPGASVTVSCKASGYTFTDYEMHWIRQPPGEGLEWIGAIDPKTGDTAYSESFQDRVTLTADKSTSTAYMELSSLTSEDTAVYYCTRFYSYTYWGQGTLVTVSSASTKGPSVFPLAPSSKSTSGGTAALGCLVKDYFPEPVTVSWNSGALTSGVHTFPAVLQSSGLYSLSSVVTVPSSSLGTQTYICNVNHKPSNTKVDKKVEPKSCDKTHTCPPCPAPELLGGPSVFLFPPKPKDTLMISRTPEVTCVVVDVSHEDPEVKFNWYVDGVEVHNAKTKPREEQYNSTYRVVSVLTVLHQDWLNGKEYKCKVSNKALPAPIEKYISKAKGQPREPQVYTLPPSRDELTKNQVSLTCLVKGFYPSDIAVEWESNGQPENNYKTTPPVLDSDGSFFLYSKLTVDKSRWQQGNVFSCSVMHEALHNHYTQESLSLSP
light: DIVMTQSPLSLPVTPGEPASISCQASESLVHSNRNTYLHWYLQKPGQSPQLLIYKVSNRFSGVPDRFSGSGSGTDFTLKISRVEAEDVGVYYCSQNTHVPPTFGQGTKVEIERTVAAPSVFIFPPSDEQLKSGTASVVCLLNNFYPREAKVQWKVDNALQSGNSQESVTEQDSKDSTYSLSSTLTLSKADYEKHKVYACEVTHQGLSSPVTKSFNRGEC
notes: homodimerized; mutation in both H chains; also called Ho Ab
B2: GpH7-B3 variant H268_18N/GpL16-k0 (antibody, human IgG1, kappa)
heavy: not shown
light: B1 light
notes: as for B1
B3: GpH7-B3 variant K334_18N/GpL16-k0 (antibody, human IgG1, kappa)
heavy: not shown
light: B1 light
notes: as for B1
B4: GpH7-B3 variant G236_10E/GpL16-k0 (antibody, human IgG1, kappa)
heavy: not shown
light: B1 light
notes: as for B1
B5: GpH7-B3 variant H268_13S/GpL16-k0 (antibody, human IgG1, kappa)
heavy: not shown
light: B1 light
notes: as for B1
B6: GpH7-B3 variant G236_09D/GpL16-k0 (antibody, human IgG1, kappa)
heavy: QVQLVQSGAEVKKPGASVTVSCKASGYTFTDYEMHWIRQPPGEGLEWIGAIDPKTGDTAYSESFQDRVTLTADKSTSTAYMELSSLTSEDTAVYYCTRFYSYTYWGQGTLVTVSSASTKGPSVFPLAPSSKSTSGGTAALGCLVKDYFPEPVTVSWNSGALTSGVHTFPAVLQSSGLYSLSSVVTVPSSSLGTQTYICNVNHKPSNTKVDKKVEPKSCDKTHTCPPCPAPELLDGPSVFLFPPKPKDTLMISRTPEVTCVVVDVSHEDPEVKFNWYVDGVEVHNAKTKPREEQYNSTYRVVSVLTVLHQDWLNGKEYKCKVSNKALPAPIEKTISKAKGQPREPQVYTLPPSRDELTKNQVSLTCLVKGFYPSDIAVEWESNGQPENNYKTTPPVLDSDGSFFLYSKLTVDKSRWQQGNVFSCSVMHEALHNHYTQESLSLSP
light: B1 light
notes: as for B1
B7: GpH7-B3 variant I332_15Y/GpL16-k0 (antibody, human IgG1, kappa)
heavy: not shown
light: B1 light
notes: as for B1
B8: GpH7-B3 variant K326_06M/GpL16-k0 (antibody, human IgG1, kappa)
heavy: not shown
light: B1 light
notes: as for B1
B9: GpH7-B3 variant H268_09D/GpL16-k0 (antibody, human IgG1, kappa)
heavy: not shown
light: B1 light
notes: as for B1
B10: GpH7-B3 variant K326_10E/GpL16-k0 (antibody, human IgG1, kappa)
heavy: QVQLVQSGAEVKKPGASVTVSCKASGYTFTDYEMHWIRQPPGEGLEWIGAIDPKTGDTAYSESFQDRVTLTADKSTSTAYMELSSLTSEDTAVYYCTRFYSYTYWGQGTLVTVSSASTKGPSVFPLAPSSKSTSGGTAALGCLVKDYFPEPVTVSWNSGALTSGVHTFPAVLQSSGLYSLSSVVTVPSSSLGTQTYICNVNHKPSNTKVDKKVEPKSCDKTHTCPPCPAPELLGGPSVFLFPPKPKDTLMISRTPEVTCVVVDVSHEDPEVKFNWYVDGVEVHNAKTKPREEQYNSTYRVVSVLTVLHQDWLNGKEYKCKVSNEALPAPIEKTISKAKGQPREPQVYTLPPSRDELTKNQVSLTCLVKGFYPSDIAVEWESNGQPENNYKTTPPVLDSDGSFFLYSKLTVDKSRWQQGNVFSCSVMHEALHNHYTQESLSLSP
light: B1 light
notes: as for B1
B11: GpH7-B3 variant I332_10E/GpL16-k0 (antibody, human IgG1, kappa)
heavy: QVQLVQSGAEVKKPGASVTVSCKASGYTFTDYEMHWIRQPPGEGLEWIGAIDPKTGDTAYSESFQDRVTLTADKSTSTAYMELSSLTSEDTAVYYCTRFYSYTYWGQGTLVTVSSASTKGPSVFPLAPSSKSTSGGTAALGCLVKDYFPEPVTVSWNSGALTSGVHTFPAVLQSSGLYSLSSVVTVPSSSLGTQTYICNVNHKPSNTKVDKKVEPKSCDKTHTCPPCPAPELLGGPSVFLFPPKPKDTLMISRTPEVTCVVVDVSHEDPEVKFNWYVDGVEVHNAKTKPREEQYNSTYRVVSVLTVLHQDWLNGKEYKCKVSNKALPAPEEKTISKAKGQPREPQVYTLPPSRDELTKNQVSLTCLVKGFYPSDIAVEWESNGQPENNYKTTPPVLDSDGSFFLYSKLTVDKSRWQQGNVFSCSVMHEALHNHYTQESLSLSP
light: B1 light
notes: homodimerized; mutation in both H chains; also called Ho Ab; GpH7-B3-22-10E/GpL16-k0
B12: GpH7-B3 variant K334_03V/GpL16-k0 (antibody, human IgG1, kappa)
heavy: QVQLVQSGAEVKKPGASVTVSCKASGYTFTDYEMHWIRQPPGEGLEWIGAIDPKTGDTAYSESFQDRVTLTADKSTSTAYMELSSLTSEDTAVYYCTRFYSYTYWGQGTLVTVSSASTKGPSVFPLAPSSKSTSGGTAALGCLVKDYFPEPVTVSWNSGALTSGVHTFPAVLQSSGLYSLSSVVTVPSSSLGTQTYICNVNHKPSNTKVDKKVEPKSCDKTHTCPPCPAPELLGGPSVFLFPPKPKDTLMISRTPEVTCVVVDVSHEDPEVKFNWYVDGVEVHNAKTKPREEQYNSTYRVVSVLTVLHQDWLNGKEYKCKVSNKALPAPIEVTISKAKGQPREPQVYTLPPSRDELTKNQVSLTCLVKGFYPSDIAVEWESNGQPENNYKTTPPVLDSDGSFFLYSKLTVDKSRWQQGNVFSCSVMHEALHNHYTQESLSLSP
light: B1 light
notes: as for B1
B13: GpH7-B3 variant K334_14T/GpL16-k0 (antibody, human IgG1, kappa)
heavy: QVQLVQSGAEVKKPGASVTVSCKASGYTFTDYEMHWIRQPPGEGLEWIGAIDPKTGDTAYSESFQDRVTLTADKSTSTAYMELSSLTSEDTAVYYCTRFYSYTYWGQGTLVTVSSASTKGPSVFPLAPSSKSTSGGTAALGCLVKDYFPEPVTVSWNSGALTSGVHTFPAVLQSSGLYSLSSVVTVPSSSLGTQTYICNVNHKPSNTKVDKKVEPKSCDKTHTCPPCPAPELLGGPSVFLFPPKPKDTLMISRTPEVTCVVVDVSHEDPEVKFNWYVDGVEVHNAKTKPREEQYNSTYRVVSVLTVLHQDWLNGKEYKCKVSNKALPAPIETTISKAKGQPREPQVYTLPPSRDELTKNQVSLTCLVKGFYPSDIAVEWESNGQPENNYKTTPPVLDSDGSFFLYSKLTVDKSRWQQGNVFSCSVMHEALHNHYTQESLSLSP
light: B1 light
notes: as for B1
B14: GpH7-B3 variant K326_16H/GpL16-k0 (antibody, human IgG1, kappa)
heavy: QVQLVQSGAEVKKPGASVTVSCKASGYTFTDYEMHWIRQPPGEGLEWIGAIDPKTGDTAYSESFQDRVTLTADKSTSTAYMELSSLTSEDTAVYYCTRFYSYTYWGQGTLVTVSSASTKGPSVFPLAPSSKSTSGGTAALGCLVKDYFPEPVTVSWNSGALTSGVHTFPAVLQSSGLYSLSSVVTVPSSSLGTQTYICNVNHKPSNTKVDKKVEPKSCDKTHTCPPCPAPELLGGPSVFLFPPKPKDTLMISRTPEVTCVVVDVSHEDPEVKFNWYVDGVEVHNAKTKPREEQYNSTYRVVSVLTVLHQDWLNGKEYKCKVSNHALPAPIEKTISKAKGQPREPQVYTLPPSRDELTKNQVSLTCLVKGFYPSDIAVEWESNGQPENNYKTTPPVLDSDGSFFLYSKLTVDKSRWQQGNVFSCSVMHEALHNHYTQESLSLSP
light: B1 light
notes: as for B1
B15: GpH7-B3 variant I332_09D/GpL16-k0 (antibody, human IgG1, kappa)
heavy: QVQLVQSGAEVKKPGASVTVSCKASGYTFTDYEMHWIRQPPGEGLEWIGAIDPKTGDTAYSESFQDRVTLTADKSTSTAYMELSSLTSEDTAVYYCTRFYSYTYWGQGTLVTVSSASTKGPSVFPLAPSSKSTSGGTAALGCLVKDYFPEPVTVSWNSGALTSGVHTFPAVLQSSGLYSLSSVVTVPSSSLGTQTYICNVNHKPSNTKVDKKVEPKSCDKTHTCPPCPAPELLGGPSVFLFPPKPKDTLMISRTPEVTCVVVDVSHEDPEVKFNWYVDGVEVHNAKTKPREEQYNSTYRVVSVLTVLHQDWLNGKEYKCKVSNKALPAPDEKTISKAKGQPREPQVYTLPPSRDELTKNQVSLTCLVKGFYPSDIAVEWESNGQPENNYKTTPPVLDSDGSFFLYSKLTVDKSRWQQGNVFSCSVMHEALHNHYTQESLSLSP
light: B1 light
notes: as for B1
B16: GpH7-B3 variant I332_04F/GpL16-k0 (antibody, human IgG1, kappa)
heavy: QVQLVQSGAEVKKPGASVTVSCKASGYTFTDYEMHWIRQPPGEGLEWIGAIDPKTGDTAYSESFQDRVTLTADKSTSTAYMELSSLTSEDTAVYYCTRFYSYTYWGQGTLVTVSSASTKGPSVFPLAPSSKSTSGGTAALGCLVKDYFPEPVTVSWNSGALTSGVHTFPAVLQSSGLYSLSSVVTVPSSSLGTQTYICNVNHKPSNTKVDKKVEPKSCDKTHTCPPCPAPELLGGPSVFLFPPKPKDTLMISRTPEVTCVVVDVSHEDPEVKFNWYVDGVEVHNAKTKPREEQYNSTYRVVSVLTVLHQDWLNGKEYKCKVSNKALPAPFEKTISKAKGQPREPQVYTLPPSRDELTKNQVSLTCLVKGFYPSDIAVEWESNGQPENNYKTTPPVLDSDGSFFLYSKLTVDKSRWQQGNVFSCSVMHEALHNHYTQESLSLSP
light: B1 light
notes: as for B1
B17: GpH7-B3 variant K334_07I/GpL16-k0 (antibody, human IgG1, kappa)
heavy: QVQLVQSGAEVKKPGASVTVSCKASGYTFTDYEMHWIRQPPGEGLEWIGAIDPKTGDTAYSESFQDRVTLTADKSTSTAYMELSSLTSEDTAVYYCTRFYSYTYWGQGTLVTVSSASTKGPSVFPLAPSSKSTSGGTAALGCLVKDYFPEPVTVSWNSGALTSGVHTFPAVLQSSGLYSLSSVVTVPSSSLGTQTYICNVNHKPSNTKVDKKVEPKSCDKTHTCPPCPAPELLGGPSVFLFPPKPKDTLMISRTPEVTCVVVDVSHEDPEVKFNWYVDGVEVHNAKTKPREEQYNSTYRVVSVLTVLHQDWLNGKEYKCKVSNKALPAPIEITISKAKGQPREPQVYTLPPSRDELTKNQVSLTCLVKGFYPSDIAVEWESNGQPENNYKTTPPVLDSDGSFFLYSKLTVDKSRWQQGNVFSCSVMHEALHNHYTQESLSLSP
light: B1 light
notes: as for B1
B18: GpH7-B3 variant K326_14T/GpL16-k0 (antibody, human IgG1, kappa)
heavy: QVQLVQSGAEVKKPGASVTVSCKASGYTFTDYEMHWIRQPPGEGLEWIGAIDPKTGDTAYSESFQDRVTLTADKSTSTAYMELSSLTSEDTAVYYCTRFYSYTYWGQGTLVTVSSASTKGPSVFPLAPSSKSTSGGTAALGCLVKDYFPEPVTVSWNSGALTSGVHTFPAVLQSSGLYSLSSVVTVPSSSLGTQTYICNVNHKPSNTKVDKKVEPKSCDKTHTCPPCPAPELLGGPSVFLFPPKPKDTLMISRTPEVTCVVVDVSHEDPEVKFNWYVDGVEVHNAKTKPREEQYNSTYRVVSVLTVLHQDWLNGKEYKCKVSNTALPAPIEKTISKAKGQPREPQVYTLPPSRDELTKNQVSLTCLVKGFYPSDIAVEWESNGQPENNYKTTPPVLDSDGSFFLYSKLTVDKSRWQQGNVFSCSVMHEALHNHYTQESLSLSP
light: B1 light
notes: as for B1
B19: GpH7-B3 variant H268_10E/GpL16-k0 (antibody, human IgG1, kappa)
heavy: not shown
light: B1 light
notes: as for B1
B20: GpH7-B3 variant K326_19Q/GpL16-k0 (antibody, human IgG1, kappa)
heavy: not shown
light: B1 light
notes: as for B1
B21: GpH7-B3 variant K334_15Y/GpL16-k0 (antibody, human IgG1, kappa)
heavy: not shown
light: B1 light
notes: as for B1
B22: GpH7-B3 variant K334_16H/GpL16-k0 (antibody, human IgG1, kappa)
heavy: not shown
light: B1 light
notes: as for B1
B23: GpH7-B3 variant K326_09D/GpL16-k0 (antibody, human IgG1, kappa)
heavy: not shown
light: B1 light
notes: as for B1

Target: T1, FcγRIIa R
Experiment: SPR (Biacore), antibody captured via antigen peptide, FcγRIIa R as analyte; homodimerized antibody
Protocol: Analysis of interaction between objective antibody and the FcγR was carried out using Biacore T100 (GE Healthcare). HBS-EP+ (GE Healthcare) was used as the running buffer, and the measurement temperature was set to 25° C. Chips produced by immobilizing the antigen peptide by the amine coupling method to a Series S Sencor Chip CM5 (GE Healthcare), or alternatively, chips produced by allowing preliminarily biotinylated antigen peptides to interact with and immobilize onto a Series S Sensor Chip SA (certified) (GE Healthcare) were used. Antibodies of interest were captured onto an antigen peptide-immobilized chip, and allowed to interact to each FcγR diluted with running buffer. To regenerate and repeatedly use the chip, the antibodies captured on the chip were washed off by reacting 10 mM glycine-HCl, pH 1.5.

Binder	Ho/Con_2aR
B1	107 % of control (GpH7-B3/GpL16-k0 = 100)
B2	134 % of control (GpH7-B3/GpL16-k0 = 100)
B3	113 % of control (GpH7-B3/GpL16-k0 = 100)
B4	140 % of control (GpH7-B3/GpL16-k0 = 100)
B5	135 % of control (GpH7-B3/GpL16-k0 = 100)
B6	107 % of control (GpH7-B3/GpL16-k0 = 100)
B7	111 % of control (GpH7-B3/GpL16-k0 = 100)
B8	143 % of control (GpH7-B3/GpL16-k0 = 100)
B9	157 % of control (GpH7-B3/GpL16-k0 = 100)
B10	156 % of control (GpH7-B3/GpL16-k0 = 100)
B11	123 % of control (GpH7-B3/GpL16-k0 = 100)
B12	123 % of control (GpH7-B3/GpL16-k0 = 100)
B13	117 % of control (GpH7-B3/GpL16-k0 = 100)
B14	123 % of control (GpH7-B3/GpL16-k0 = 100)
B15	127 % of control (GpH7-B3/GpL16-k0 = 100)
B16	109 % of control (GpH7-B3/GpL16-k0 = 100)
B17	121 % of control (GpH7-B3/GpL16-k0 = 100)
B18	141 % of control (GpH7-B3/GpL16-k0 = 100)
B19	154 % of control (GpH7-B3/GpL16-k0 = 100)
B20	137 % of control (GpH7-B3/GpL16-k0 = 100)
B21	112 % of control (GpH7-B3/GpL16-k0 = 100)
B22	111 % of control (GpH7-B3/GpL16-k0 = 100)
B23	158 % of control (GpH7-B3/GpL16-k0 = 100)
